Results on three molecules are retold here after patent US20250084174A1.

The target in test [1] is human CCR9 (isoform not given) (human), P51686.
Test [2] concerns the target CCR9 (species and isoform not stated) (UniProt P51686). Briefly: cell-based or functional assay.
Test [3] has as its target human CCR9 (isoform not given) (human), P51686. Briefly: cell-based or functional assay.
Test [4] addresses CCR9 (species and isoform not stated) (UniProt P51686).
Test [5] shares this target. Nature of the test: LigandTracer on CCR9-expressing CHO K1 cells, DyLight 650 labelled IgG, bivalent (1:2) fit, ~22 °C.

Chain of human CCR9 (isoform not given) (human), P51686 (P51686 whole entry, canonical isoform): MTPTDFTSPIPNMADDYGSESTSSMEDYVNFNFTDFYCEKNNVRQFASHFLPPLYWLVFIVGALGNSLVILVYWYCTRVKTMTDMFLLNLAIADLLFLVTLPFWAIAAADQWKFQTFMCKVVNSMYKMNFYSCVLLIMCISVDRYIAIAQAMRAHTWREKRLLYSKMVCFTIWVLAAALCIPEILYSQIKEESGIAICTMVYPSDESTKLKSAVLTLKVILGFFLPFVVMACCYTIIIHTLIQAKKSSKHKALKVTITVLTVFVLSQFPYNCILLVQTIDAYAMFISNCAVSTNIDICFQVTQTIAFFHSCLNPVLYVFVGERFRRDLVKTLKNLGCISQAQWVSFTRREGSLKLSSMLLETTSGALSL

B1: AB243LO0326 (antibody, V domains shown)
VH: QVQLVQSGAEVKKPGASVKVSCKASGYTFTSYWMHWVRQAPGQGLEWIGVIYPGNSDTRYNQKFKGRVTITRDTSASTAYMELSSLRSEDTAVYYCTRDYYSNYVYYYAMDYWGQGTTVTVSS
VL: DIVMTQTPLSLPVTPGEPASISCRSSQSLVHPNRNTYLHWYLQKPGQSPQLLIYKVSNRFSGVPDRFSGSGSGTDFTLKISRVEAEDVGVYYCSQSTHVPWTFGQGTKLEIK
modifications: here or on the partner: afucosylated form; in the LigandTracer assay DyLight 650 Maleimide on an engineered cysteine residue in the CH2 region
With B1, the IC50 (read off the curve), HTRF IP-One, MOLT 4 cells, 50 nM CCL25 in test [1] was 0.6 nM. In test [2], the prevention of CCL25 induced CCR9 internalisation (FACS) amounted to 2 nM. In test [3], this molecule displayed an EC50, killing of PBMC of 0.004 nM and an EC50, killing of human CD4+CCR9+ PBMC of 0.004 to 0.005 nM.

B2: AB243LO0331 (antibody, IgG1, V domains shown)
VH: QVQLVQSGAEVKKPGASVKVSCKASGYTFTSYWMHWVRQAPGQGLEWIGVIYPGNSDTRYNQKFKGRVTITRDTSASTAYMELSSLRSEDTAVYYCTRDYYSNYVYYYAMDYWGQGTTVTVSS
VL: DIVMTQTPLSLPVTPGEPASISCRSSQSLVHSNTNTYLHWYLQKPGQSPQLLIYKVSNRFSGVPDRFSGSGSGTDFTLKISRVEAEDVGVYYCSQSTHVPWTFGQGTKLEIK
modifications: here or on the partner: afucosylated form
Molecule B2 came in with an IC50 (read off the curve), HTRF IP-One, MOLT 4 cells, 50 nM CCL25 in test [1] of 0.6 nM.

B3: humanised AB1020243 afuc (AB1020243-fgl) (antibody, V domains shown)
VH: QVQLVQSGAEVKKPGASVKVSCKASGYTFTSYWMHWVRQAPGQGLEWIGVIYPGNSDTRYNQKFKGRVTITRDTSASTAYMELSSLRSEDTAVYYCTRDYYSNYVYYYAMDYWGQGTTVTVSS
VL: DIVMTQTPLSLPVTPGEPASISCRSSQSLVHSNGNTYLHWYLQKPGQSPQLLIYKVSNRFSGVPDRFSGSGSGTDFTLKISRVEAEDVGVYYCSQSTHVPWTFGQGTKLEIK
modifications: afucosylated form; in the LigandTracer assay DyLight 650 Maleimide on an engineered cysteine residue in the CH2 region
Usually koff stands for the rate constant with which the complex falls apart. Lower therefore signals a long-lived complex. B3 registered an EC50, luminescence signal (CPS) against Log M; potency curve as in the NK cell activation reporter assay; the target cell line is not printed on the sheet in test [4] of 7.3e-09 M. For the same molecule, the dissociation rate constant (koff) in test [5] was determined as 4.3e-05 s⁻¹. Further, in test [3], the Potency, NK cell activation (NK-92 CD16a NFAT luciferase reporter) came to 0.8 nM.
